The values that follow come from patent US20150232562A1 (Ablynx, published 2015).

In this assay the target is T1, recombinant human ErbB2/Fc chimera (human, UniProt P04626 23-652).
T1 construct: bought from R&D Systems; also called rhErbB2-Fc; rhErb2-Fc; Fc part of the bought chimera not given; not described
In words: ELISA, coated ErbB2/Fc. For orientation: An ELISA detects its analyte on a solid surface through an enzyme-linked reagent.

B1: 12E42/1-118 (VHH)
VHH: EVQLVESGGGLVQPGGSLRLSCAHSGRAFSLRTMGWYRQAPGNQRELVALISAGDSTYYPDSVKGRFTVSRDNAKNTVYLQMNSLKPEDTAVYYCNAKAVTSRDHEYWGQGTQVTVSS
notes: C-term myc-His6 tag
Take B1: the binding result was “binds”.

B2: 13G11/1-122 (VHH)
VHH: EVQLVESGGGLVQAGGSLRLSCAASGRTFISNYAMGWFRQAPGKEREFVATINWSGSHSDYADSVKGRFTISRDNAKNTVYLQMNNLKSEDTAVYYCAPGWGTAPLSTSVYWGQGTQVTVSS
notes: C-term myc-His6 tag
As for B2, the binding result is reported as “binds”.

B3: 13F21/1-123 (VHH)
VHH: EVQLVESGGGLVQSGGSLRLSCVASGTIVSINATSWYRQAPGNQRELVATIIGDGRTHYADSVKDRFTISRDAAANLVYLQMNSLKPSDTAIYSCNANGIESYGWGNRHFNYWTVGTQVTVSS
notes: C-term myc-His6 tag
Regarding B3, the binding result is listed as “binds”.

B4: 11A52/1-120 (VHH)
VHH: EVQLVESGGGLVQAGGSLRLSCAASGRALSNYAMRWFRQAPGKEREFVATINWSGSHTDYADSVKGRFTISRDNAENTVYLQMNSLTPEDTAVYYCASGWGATQAQSGFWGQGTQVTVSS
notes: C-term myc-His6 tag
On to B4, for which the binding result is on record as “binds”.

B5: 14H111/1-120 (VHH)
VHH: EVQLVESGGGLVQAGGSLRLSCAASGRALISFAMRWFRQAPGKEREFVAAINWSGTHTDYADSVKGRFTISRDNAENTVYLLMNSLIPEDTAVYYCATGWGATQAQHGFWGQGTQVTVSS
notes: C-term myc-His6 tag
Turning to B5, the binding result is “binds”.

B6: 11B61/1-120 (VHH)
VHH: EVQLVESGGGLVQAGGSLRLSCAASGRTSSGYGMGWFRQAPGKEREFVAAVGWYGSTYFADSVKGRFTIYRDNAQNTMYLQMNSLKPEDTAVYYCAASSSLATISQPSSWGQGTQVTVSS
notes: C-term myc-His6 tag
Take B6: the binding result is “binds”.

B7: 21A41/1-120 (VHH)
VHH: EVQLVESGGGLVQAGGSLRLSCAASGRIFSNYAWSWFRQAPGKERGFVAAINWSGGYTDYADSVKGRFTISRDNTKNTVYLQMNSLKPEDTAVYYCRPGWVTPSYEYGNWGQGTQVTVSS
notes: C-term myc-His6 tag
As for B7, the binding result is given as “binds”.

B8: 13F81A/1-128 (VHH)
VHH: EVQLVESGGGLVQAGGSLRLSCAASGRTFSRYAMGWFRQAPGKEREFVAAISWTGGSSYYGDSVKGRSTISRENAENTVYLQMNSLKPEDTAVYYCAANSDEFYSGTLKLQSRMVEYWGQGTQVTVSS
notes: C-term myc-His6 tag
Consider B8, for which the binding result is “binds”.

B9: 12E21/1-115 (VHH)
VHH: EVQLVESGGGLVQPGGSLRLSCAASGSIDSIHVVGWYRKAPGKQREVVAYIGTAGATHYADSVKGRFTISRDNAENLVYLQMNNLKPEDTAVYYCSAGWGDSAYWGQGTQVTVSS
notes: C-term myc-His6 tag
Consider B9, for which the binding result is given as “binds”.

B10: 14H101/1-128 (VHH)
VHH: EVQLVESGGGLVQAGGSLRLSCAASGRTFISSPMGWFRQAPGKEREVVAATTRSGGLPYYSDSVKGRFTISRDNAKNTVDLQMSSLKPEDTAAYYCAADQKYGMSYSRLWLVSEYEYWGQGTQVTVSS
notes: C-term myc-His6 tag
In the case of B10, the binding result was “binds”.

B11: 11B102/1-118 (VHH)
VHH: EVQLVESGGGLVQAGGSLRLSCAASGGIFSSHAISWFRQAPGKAREFVAAINWSGSHRDYADSAKGRFTISRDNAKKTAYLQMNSLRPEDTAVYYCVGGWKTDEYVKWGQGTQVTVSS
notes: C-term myc-His6 tag
With B11, the binding result is recorded as “binds”.

B12: 12E33/1-119 (VHH)
VHH: EVQLVESGGGMVQAGGSLRLSCAASGLTLSNYGMGWFRQAPGKEREFVSSINWSGTHTYDADFVKGRFIISRDNAKNTVYLQINSLKPEDTAVYYCAAGGWGTGRYNYWGQGTQVTVSS
notes: C-term myc-His6 tag
With B12, the binding result is “binds”.
